For 58 sequences, binding signal (PBM E-score (-0.5 to 0.5)) results are on record in PMC4434323.

The target in data set [1] is T1, lsy-27 (F47H4.1) (Caenorhabditis elegans) (UniProt O45526).
T1 sequence: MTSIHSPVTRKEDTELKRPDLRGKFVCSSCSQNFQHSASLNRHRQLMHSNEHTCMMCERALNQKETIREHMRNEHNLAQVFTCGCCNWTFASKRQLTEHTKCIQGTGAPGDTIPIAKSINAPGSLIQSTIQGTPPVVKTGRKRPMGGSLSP

In data set [2] the target is T2, ztf-29 (Y66D12A.12) (Caenorhabditis elegans) (UniProt Q95Q03).
T2 sequence: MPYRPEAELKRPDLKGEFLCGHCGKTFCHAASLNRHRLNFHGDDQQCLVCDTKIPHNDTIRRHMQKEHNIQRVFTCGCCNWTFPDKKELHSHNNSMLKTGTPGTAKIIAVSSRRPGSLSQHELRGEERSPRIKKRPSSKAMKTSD

In data set [3] the target is T3, F52B5.7 (F52B5.7) (Caenorhabditis elegans) (UniProt Q7YWZ7).
T3 sequence: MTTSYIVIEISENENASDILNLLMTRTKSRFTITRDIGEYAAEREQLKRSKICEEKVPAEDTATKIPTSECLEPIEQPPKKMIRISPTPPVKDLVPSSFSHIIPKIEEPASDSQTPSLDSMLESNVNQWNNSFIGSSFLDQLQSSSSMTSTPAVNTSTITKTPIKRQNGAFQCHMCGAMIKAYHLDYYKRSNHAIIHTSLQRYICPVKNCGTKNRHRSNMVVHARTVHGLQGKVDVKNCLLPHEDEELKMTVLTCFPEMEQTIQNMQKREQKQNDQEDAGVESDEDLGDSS

The target of data set [4] is T4, lsl-1 (F52F12.4) (Caenorhabditis elegans) (UniProt O02273).
T4 sequence: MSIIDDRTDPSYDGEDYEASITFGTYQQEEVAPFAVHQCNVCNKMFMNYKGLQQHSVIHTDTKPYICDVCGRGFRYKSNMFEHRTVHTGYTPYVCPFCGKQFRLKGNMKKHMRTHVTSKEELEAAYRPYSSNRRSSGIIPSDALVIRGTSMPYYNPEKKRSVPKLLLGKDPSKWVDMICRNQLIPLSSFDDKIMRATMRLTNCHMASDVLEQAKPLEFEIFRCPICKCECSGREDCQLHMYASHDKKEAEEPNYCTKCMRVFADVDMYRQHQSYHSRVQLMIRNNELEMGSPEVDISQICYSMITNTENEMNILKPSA

The target of data set [5] is T5, che-1 (C55B7.12) (Caenorhabditis elegans) (UniProt Q966L8).
T5 sequence: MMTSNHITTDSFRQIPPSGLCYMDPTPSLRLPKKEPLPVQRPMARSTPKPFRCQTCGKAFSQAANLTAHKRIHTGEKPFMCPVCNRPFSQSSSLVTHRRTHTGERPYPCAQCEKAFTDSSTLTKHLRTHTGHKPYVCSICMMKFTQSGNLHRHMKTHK

The target in data set [6] is pag-3 (F45B8.4) (Caenorhabditis elegans) (UniProt G5EDE1).
Sequence of pag-3 (F45B8.4) (Caenorhabditis elegans) (G5EDE1 76-311): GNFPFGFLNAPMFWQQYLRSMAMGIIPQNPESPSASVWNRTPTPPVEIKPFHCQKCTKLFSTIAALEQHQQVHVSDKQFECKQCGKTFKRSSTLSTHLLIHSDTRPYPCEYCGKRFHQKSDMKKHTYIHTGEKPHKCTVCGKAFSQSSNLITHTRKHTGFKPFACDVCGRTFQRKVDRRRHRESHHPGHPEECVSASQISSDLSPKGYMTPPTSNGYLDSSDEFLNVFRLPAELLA
In data set [7] the target is T6, ham-2 (C07A12.1) (Caenorhabditis elegans) (UniProt H2KYH4).
T6 sequence: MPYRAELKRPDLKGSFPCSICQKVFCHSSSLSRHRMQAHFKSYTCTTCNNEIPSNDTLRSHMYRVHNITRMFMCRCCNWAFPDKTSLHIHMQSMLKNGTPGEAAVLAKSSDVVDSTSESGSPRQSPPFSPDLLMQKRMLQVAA

For data set [8], the target named is T7, Y44A6D.3 (Y44A6D.3) (Caenorhabditis elegans) (UniProt Q9XXE0).
T7 sequence: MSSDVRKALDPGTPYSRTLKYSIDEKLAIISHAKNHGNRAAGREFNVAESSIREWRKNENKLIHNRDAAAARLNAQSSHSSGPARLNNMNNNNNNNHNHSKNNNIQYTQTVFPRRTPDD

On to “AAAGCTTC (double strand) [8-mer AAAGCTTC]”, for which the figures for the binding signal (PBM E-score (-0.5 to 0.5)) in data set [1] and in data set [2] were 0.492 and 0.486, respectively.

For the sequence “CCATGGGG (double strand) [8-mer CCATGGGG]”, the binding signal (PBM E-score (-0.5 to 0.5)) in data set [3] is 0.482.

In turn, “CTACGGTA (double strand) [8-mer CTACGGTA]” registered a binding signal (PBM E-score (-0.5 to 0.5)) in data set [4] of 0.491.

As for “ATGGGTAC (double strand) [8-mer ATGGGTAC]”, in data set [3], the binding signal (PBM E-score (-0.5 to 0.5)) worked out at 0.488.

Consider “GCCCCATA (double strand) [8-mer GCCCCATA]”, for which, in data set [3], the binding signal (PBM E-score (-0.5 to 0.5)) came out at 0.487.

As for “GGCTTCAC (double strand) [8-mer GGCTTCAC]”, the binding signal (PBM E-score (-0.5 to 0.5)) amounted to 0.49 in data set [1] and 0.492 in data set [5].

Consider “AGCTTCAT (double strand) [8-mer AGCTTCAT]”, for which, in data set [1], the binding signal (PBM E-score (-0.5 to 0.5)) is 0.494.

Sequence “ATGGATAC (double strand) [8-mer ATGGATAC]” registered a binding signal (PBM E-score (-0.5 to 0.5)) in data set [3] of 0.485.

As for “CTACCGTA (double strand) [8-mer CTACCGTA]”, in data set [4], the binding signal (PBM E-score (-0.5 to 0.5)) was 0.498.

For “AATCAGTG (double strand) [8-mer AATCAGTG]”, in data set [6], the binding signal (PBM E-score (-0.5 to 0.5)) was 0.491.

In turn, “CCCCATGA (double strand) [8-mer CCCCATGA]” had a binding signal (PBM E-score (-0.5 to 0.5)) in data set [3] of 0.495.

In data set [6], “CAAATCAC (double strand) [8-mer CAAATCAC]” had a binding signal (PBM E-score (-0.5 to 0.5)) of 0.487.

“AAATCTGG (double strand) [8-mer AAATCTGG]” showed a binding signal (PBM E-score (-0.5 to 0.5)) in data set [6] of 0.493.

With “ACCCCATA (double strand) [8-mer ACCCCATA]”, the binding signal (PBM E-score (-0.5 to 0.5)) in data set [3] came out at 0.496.

As to “TACCCATA (double strand) [8-mer TACCCATA]”, the binding signal (PBM E-score (-0.5 to 0.5)) in data set [3] was 0.485.

For the sequence “GCTTAAGC (double strand) [8-mer GCTTAAGC]”, the results for the binding signal (PBM E-score (-0.5 to 0.5)) in data set [1], in data set [7] and in data set [2] were 0.494, 0.493 and 0.491, respectively.

For the sequence “TACGGTAA (double strand) [8-mer TACGGTAA]”, the binding signal (PBM E-score (-0.5 to 0.5)) in data set [4] was 0.492.

“GCTTCACC (double strand) [8-mer GCTTCACC]” showed a binding signal (PBM E-score (-0.5 to 0.5)) in data set [1] of 0.491.

For the sequence “ACCCATGG (double strand) [8-mer ACCCATGG]”, in data set [3], the binding signal (PBM E-score (-0.5 to 0.5)) was 0.485.

In the case of “AAGCTTTA (double strand) [8-mer AAGCTTTA]”, the binding signal (PBM E-score (-0.5 to 0.5)) stood at 0.49 in data set [1], 0.482 in data set [7] and 0.494 in data set [2].

Sequence “ATACCGTA (double strand) [8-mer ATACCGTA]” returned a binding signal (PBM E-score (-0.5 to 0.5)) in data set [4] of 0.492.

Regarding “GAAGCTTA (double strand) [8-mer GAAGCTTA]”, the figures for the binding signal (PBM E-score (-0.5 to 0.5)) in data set [1], in data set [7] and in data set [2] were 0.493, 0.482 and 0.485, respectively.

“ATGGGGTA (double strand) [8-mer ATGGGGTA]” gave a binding signal (PBM E-score (-0.5 to 0.5)) in data set [3] of 0.488.

“ACCCCATG (double strand) [8-mer ACCCCATG]” returned a binding signal (PBM E-score (-0.5 to 0.5)) in data set [3] of 0.486.

“AAATCTGA (double strand) [8-mer AAATCTGA]” came in with a binding signal (PBM E-score (-0.5 to 0.5)) in data set [6] of 0.486.

“AAATCACA (double strand) [8-mer AAATCACA]” yielded a binding signal (PBM E-score (-0.5 to 0.5)) in data set [6] of 0.49.

Regarding “AAGCTTCT (double strand) [8-mer AAGCTTCT]”, the binding signal (PBM E-score (-0.5 to 0.5)) is 0.496 in data set [1] and 0.49 in data set [2].

Take “AAGCTTCA (double strand) [8-mer AAGCTTCA]”: the binding signal (PBM E-score (-0.5 to 0.5)) was found to be 0.497 in data set [1] and 0.489 in data set [2].

The sequence “CTACTGTA (double strand) [8-mer CTACTGTA]” returned a binding signal (PBM E-score (-0.5 to 0.5)) in data set [4] of 0.491.

“AGCTTCAG (double strand) [8-mer AGCTTCAG]”: the binding signal (PBM E-score (-0.5 to 0.5)) in data set [1] is 0.491.

The sequence “AATCACTG (double strand) [8-mer AATCACTG]” yielded a binding signal (PBM E-score (-0.5 to 0.5)) in data set [6] of 0.49.

Sequence “ATACGGTA (double strand) [8-mer ATACGGTA]” returned a binding signal (PBM E-score (-0.5 to 0.5)) in data set [4] of 0.495.

As to “GAAGCTTC (double strand) [8-mer GAAGCTTC]”, the binding signal (PBM E-score (-0.5 to 0.5)) was found to be 0.496 in data set [1] and 0.494 in data set [2].

Regarding “CAGATTTA (double strand) [8-mer CAGATTTA]”, the binding signal (PBM E-score (-0.5 to 0.5)) in data set [6] was 0.489.

Take “AGCTTCAC (double strand) [8-mer AGCTTCAC]”: in data set [1], the binding signal (PBM E-score (-0.5 to 0.5)) was found to be 0.493.

For the sequence “CTGCGCAA (double strand) [8-mer CTGCGCAA]”, the binding signal (PBM E-score (-0.5 to 0.5)) in data set [8] worked out at 0.495.

Turning to “CCCCATAG (double strand) [8-mer CCCCATAG]”, the binding signal (PBM E-score (-0.5 to 0.5)) in data set [3] stood at 0.492.

Sequence “AAATCACG (double strand) [8-mer AAATCACG]” yielded a binding signal (PBM E-score (-0.5 to 0.5)) in data set [6] of 0.492.

“AATCACAG (double strand) [8-mer AATCACAG]” showed a binding signal (PBM E-score (-0.5 to 0.5)) in data set [6] of 0.491.

In turn, “AGCTTCTG (double strand) [8-mer AGCTTCTG]” had a binding signal (PBM E-score (-0.5 to 0.5)) in data set [1] of 0.491.

In the case of “AAAATCTG (double strand) [8-mer AAAATCTG]”, the binding signal (PBM E-score (-0.5 to 0.5)) in data set [6] was 0.491.

On to “AAATCTCA (double strand) [8-mer AAATCTCA]”, for which the binding signal (PBM E-score (-0.5 to 0.5)) in data set [6] came out at 0.487.

In turn, “GCTGCGCA (double strand) [8-mer GCTGCGCA]” came in with a binding signal (PBM E-score (-0.5 to 0.5)) in data set [8] of 0.494.

“AAATCTGT (double strand) [8-mer AAATCTGT]”: in data set [6], the binding signal (PBM E-score (-0.5 to 0.5)) was determined as 0.49.

In data set [6], “AATCTGTG (double strand) [8-mer AATCTGTG]” came in with a binding signal (PBM E-score (-0.5 to 0.5)) of 0.487.

The sequence “AATCTCAG (double strand) [8-mer AATCTCAG]” had a binding signal (PBM E-score (-0.5 to 0.5)) in data set [6] of 0.49.

The sequence “TCCGCGCA (double strand) [8-mer TCCGCGCA]” returned a binding signal (PBM E-score (-0.5 to 0.5)) in data set [8] of 0.495.

In the case of “GGTGCGCA (double strand) [8-mer GGTGCGCA]”, the binding signal (PBM E-score (-0.5 to 0.5)) in data set [8] was 0.493.

Turning to “GTACCATA (double strand) [8-mer GTACCATA]”, in data set [3], the binding signal (PBM E-score (-0.5 to 0.5)) worked out at 0.487.

For “CCCCATAA (double strand) [8-mer CCCCATAA]”, the binding signal (PBM E-score (-0.5 to 0.5)) in data set [3] was 0.495.

In data set [6], “CAAATCTG (double strand) [8-mer CAAATCTG]” displayed a binding signal (PBM E-score (-0.5 to 0.5)) of 0.489.

Turning to “ATGCGCAG (double strand) [8-mer ATGCGCAG]”, the binding signal (PBM E-score (-0.5 to 0.5)) in data set [8] was found to be 0.493.

The sequence “CCCCCATA (double strand) [8-mer CCCCCATA]” gave a binding signal (PBM E-score (-0.5 to 0.5)) in data set [3] of 0.485.

With “GCCGCGCA (double strand) [8-mer GCCGCGCA]”, the binding signal (PBM E-score (-0.5 to 0.5)) in data set [8] turned out to be 0.494.

Sequence “TACCGTAA (double strand) [8-mer TACCGTAA]” returned a binding signal (PBM E-score (-0.5 to 0.5)) in data set [4] of 0.493.

Consider “AAGCTTAA (double strand) [8-mer AAGCTTAA]”, for which the values for the binding signal (PBM E-score (-0.5 to 0.5)) in data set [1], in data set [7] and in data set [2] were 0.493, 0.493 and 0.494, respectively.

On to “AAAGCTTT (double strand) [8-mer AAAGCTTT]”, for which the binding signal (PBM E-score (-0.5 to 0.5)) in data set [1] stood at 0.491; in data set [7] it was 0.478; in data set [2], 0.496.

On to “CCCATGGG (double strand) [8-mer CCCATGGG]”, for which the binding signal (PBM E-score (-0.5 to 0.5)) in data set [3] was determined as 0.485.
